Conditions: Rattus norvegicus; pH 7.3; 20 °C; GdnHCl; Fluorescence; potassium phosphate 20 mM; whole UniProt chain shown

B1: Fatty acid-binding protein, intestinal wild type, P02693 (protein)
chain: MAFDGTWKVDRNENYEKFMEKMGINVVKRKLGAHDNLKLTITQEGNKFTVKESSNFRNIDVVFELGVDFAYSLADGTELTGTWTMEGNKLVGKFKRVDNGKELIAVREISGNELIQTYTYEGVEAKRIFKKE
Q: Which “denaturant midpoint (higher = more stable)” value does the source give for B1 here?
A: 1.4 M

Q: And the unfolding free energy?
A: 5 kcal/mol

— FireProtDB (doi:10.1021/bi012042l)
